We go through two molecules from patent US20060031961A1, “Aldehyde reductase” (priority 2004, published 2006).

Several values for one entry are separate records, joined by “and”; a condition that tells them apart may be missing. Identical values can stand only once.

The test system of this assay is aldehyde reductase. The assay is described as follows: Aldehyde reductase activity assay of expressed, purified proteins (oxidation of NADPH, change in A340). The format is biochemical, Soybean (Glycine max L.). As for the experimental part: The activity assay measured oxidation of NADPH on a UV500 UV-Visible double-beam Spectrometer (Unicam) by monitoring the change in A340. The assay was performed at room temperature (approximately 23° C.) by adding all of the following reagents into a 1-mL 1-cm quartz cuvette: 500 μL of 200 mM HEPES-KOH pH 7.0, 200 μL of ddH2O, 100 μL of 1 mM NADPH, 25-50 μL aldehyde reductase extract in a 100 μL total volume of 100 mM HEPES-KOH pH 7.0, 10% glycerol buffer. After these samples were mixed and blanked and were incubated for three minutes and a pre-substrate rate was calculated, the assay was started by addition of the substrate to the sample cuvette (solvent was added to the reference cuvette). Several different substrates were tested with each enzyme preparation. These substrates included the following: 100 μL of 100 mM glyceraldehyde, 10 μL of 100 mM glyceraldehyde, or 100 μL of 0.5% […] hexanal in v/v ethanol, or 100 μL of a carbonyl compounds mixture (ULTRA Scientific, North Kingston, R.I.; formaldehyde, acetaldehyde, propanal, butantal, pentanal, hexanal, heptanal, octanal, nonanal, decanal, cyclohexanone, and crotonaldehdye (in methanol)). The carbonyl compounds mixture contains approximately 16 μmole total aldehyde per assay. Except for the inactivity seen in one aldehyde reductase extract with hexanal as the substrate, both of the aldehyde reductase enzymes were active with each of the different substrates tested (see Table 6). As a control, an extract of E. coli proteins without the expressed aldehyde reductase enzymes was prepared and assayed the same way. […] A Bradford assay was performed to determine protein concentrations in the extracts, and the enzymatic rates were calculated. Table 6 presents the activity (in μmol of NADPH oxidized and were NADPH specific (i.e., no activity was observed when NADH was used as the reductant)/min^−1/mg protein^−1) obtained for the purified protein extracts from the plasmids and the source of the DNA. Enzyme activity was calculated as follows: (ΔA340/min; after correction for pre-substrate addition rates)/(6.2×mg enzyme/mL reaction mixture).

The mark [1] stands for this setting: substrate 1 mM glyceraldehyde, NADPH.
The mark [2] stands for this setting: substrate 10 mM glyceraldehyde, 100 μL of 1 mM NADH substituted for NADPH.
[3] abbreviates: substrate 10 mM glyceraldehyde, 100 μL of 10 mM ZnCl2 substituted for 100 μL ddH2O.
Where [4] appears, read: substrate 10 mM glyceraldehyde, NADPH, room temperature, pH 7.0.
The mark [5] stands for this setting: substrate 100 μL 0.5% hexanal, NADPH.
[6] abbreviates: substrate 100 μL aldehyde mixture (carbonyl compounds mixture), NADPH.

B1: sr1.pk0003.c5: soybean aldehyde reductase encoded by clone sr1.pk0003.c5:fis, expressed in E. coli and purified (protein)
chain: MAKLIKFFELNTGAKIPSVGLGTWQAEPGVVAKAVTTAILVGYRHIDCAQAYNNQAEIGSALKKLFDDGVVKREDLWITSKLWCSDHASEDVPKALDKTLQDLQLDYLDLYLIHWPVRMKSGSVGFKKEYLDQPDIPSTWKAMEALYDSGKARAIGVSNFSSKKLQDLMNIARVPPAVNQVELHPGWQQPKLHAFCESKGVHLSGYSPLGSPGVLKSDILKNPVVIEIAEKLGKTPAQVALRWGLQTGHSVLPKSTNESRIKGNFDVFDWSIPEEVMDKFSEIKQDRLIKGTFFVDETYGAFKTVEELWDGEL
modifications: Glycine max
notes: soybean aldehyde reductase encoded by clone sr1.pk0003.c5:fis, expressed in E. coli and purified
For the molecule B1, the Activity runs as follows: under setting [1], 0.58 μmol · min^−1 · mg protein^−1; under setting [2], 0.00 μmol · min^−1 · mg protein^−1; under setting [3], 0.45 μmol · min^−1 · mg protein^−1; under setting [4], 1.65 μmol · min^−1 · mg protein^−1 and 1.90 μmol · min^−1 · mg protein^−1 and 2.24 μmol · min^−1 · mg protein^−1; under setting [5], 0.26 μmol · min^−1 · mg protein^−1; under setting [6], 0.55 μmol · min^−1 · mg protein^−1.

B2: sls2c.pk027.a23:fis: soybean aldehyde reductase encoded by clone sls2c.pk027.a23:fis, expressed in E. coli and purified (protein)
chain: MAKSIKFFELNTGAKIPSLGLGTWQAEPGVVAEALTTAIQVGYRHIDCASAYKNQAEIGSALKKLFDDGVVKREDLWITSKLWCSDHAPEDVPKALDKTLQELQLDYLDLYLIHWPVRMKSGTFGLNKEYLEQPDIPNTWRAMEALYDSDKARAIGVSNFSSKKLQDLLDIARVVPAVNQVELHPGWQQPKLRAFCESKEIHLSGYSPLGSPAALKSDILKNPVVTEIAERLGKTPAQVALRWGLQAGHSVLPKSTNESRIKGNFDIFDWSIPQDLMTKISEIKQERLVKASFFVHETYGAYRSIEDFWDGEL
modifications: Glycine max
notes: soybean aldehyde reductase encoded by clone sls2c.pk027.a23:fis, expressed in E. coli and purified
For B2, the Activity was 0.14 μmol · min^−1 · mg protein^−1 under setting [1]; 0.00 μmol · min^−1 · mg protein^−1 under setting [2]; 0.28 μmol · min^−1 · mg protein^−1 under setting [3]; 0.70 μmol · min^−1 · mg protein^−1 and 0.60 μmol · min^−1 · mg protein^−1 and 0.74 μmol · min^−1 · mg protein^−1 under setting [4]; 0.00 μmol · min^−1 · mg protein^−1 under setting [5]; 0.58 μmol · min^−1 · mg protein^−1 under setting [6].
